Assay results taken from article PMC9713717.

Molecular target: T1, human NKCC1 (sodium-potassium-chloride transporter NKCC1, SLC12A2) (human), P55011
T1 chain: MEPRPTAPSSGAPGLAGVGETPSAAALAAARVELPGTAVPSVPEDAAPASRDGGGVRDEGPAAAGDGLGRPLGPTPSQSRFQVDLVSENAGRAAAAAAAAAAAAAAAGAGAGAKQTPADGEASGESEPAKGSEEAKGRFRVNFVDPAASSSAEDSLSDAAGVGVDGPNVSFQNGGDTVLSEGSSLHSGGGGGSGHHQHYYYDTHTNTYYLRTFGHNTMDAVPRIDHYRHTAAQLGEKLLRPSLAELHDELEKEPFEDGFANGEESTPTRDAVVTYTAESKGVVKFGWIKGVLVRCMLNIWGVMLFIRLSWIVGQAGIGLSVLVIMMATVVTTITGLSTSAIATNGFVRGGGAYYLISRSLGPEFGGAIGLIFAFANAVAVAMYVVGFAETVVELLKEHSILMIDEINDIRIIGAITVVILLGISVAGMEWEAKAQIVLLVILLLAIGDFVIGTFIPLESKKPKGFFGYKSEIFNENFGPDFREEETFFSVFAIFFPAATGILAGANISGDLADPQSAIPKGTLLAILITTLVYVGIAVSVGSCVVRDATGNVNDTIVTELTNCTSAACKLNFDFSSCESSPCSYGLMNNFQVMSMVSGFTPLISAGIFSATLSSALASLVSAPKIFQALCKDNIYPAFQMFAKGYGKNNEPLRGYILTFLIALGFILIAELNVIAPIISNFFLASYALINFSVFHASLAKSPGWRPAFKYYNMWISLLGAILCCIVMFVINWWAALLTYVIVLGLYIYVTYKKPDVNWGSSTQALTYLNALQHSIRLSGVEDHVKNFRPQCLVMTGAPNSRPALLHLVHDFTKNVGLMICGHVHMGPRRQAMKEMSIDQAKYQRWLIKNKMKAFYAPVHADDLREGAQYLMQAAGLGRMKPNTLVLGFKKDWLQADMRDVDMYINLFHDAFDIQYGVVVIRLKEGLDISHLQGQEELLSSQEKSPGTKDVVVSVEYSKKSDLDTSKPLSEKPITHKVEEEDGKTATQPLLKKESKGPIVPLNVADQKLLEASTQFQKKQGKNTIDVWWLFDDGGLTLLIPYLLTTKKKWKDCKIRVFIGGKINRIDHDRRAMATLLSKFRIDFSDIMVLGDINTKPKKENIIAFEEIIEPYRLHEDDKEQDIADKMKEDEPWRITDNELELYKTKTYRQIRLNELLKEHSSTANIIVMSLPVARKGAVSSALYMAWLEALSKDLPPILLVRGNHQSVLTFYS
Assay: cryo-EM structure
Conditions: remark: other sources report otherwise

B1: human NKCC1 (sodium-potassium-chloride transporter NKCC1, SLC12A2), P55011 1-1212 (natural protein)
chain: T1 chain
Question: For B1, which stoichiometry N is on record?
Answer: Its stoichiometry N is 2.
